Molecular target: T1, Mcm5 (S. cerevisiae, UniProt P29496 1-775)
T1 sequence: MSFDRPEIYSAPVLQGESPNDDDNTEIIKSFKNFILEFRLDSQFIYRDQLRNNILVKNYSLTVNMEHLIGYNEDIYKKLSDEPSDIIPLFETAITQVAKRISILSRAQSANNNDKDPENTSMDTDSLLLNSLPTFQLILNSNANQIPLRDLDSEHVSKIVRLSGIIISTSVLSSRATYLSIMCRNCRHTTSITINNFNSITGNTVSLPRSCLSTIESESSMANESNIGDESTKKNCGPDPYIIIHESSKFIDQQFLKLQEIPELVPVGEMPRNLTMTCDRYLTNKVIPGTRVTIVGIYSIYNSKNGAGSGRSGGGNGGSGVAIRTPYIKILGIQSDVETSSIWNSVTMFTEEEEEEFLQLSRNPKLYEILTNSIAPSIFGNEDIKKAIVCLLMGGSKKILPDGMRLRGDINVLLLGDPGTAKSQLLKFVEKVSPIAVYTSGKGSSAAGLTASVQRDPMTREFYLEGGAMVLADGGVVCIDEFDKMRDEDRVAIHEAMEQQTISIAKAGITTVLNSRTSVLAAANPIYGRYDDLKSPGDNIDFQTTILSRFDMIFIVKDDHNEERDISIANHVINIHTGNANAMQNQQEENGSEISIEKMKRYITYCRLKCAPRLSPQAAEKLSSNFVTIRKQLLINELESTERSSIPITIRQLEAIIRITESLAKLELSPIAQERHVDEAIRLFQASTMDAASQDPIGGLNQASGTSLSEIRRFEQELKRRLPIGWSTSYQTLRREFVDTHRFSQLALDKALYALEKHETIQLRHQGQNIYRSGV
Experiment: cryo-EM structure

B1: Psf3 (natural protein)
chain: MGYYDIDDVLADGTEFPCKFQYDIPGLGYLENNPGRPITKNTKLSLPLWLARILAIVGGDEALVDEEPVPFVELLPPDMFSTKVMNAIKTDPVALDLHSINSHFFSLAIKWIMLFSEKELANVVSELLLQRAQELNHHASSLSIDLNADSTGKNSANTNIATSTFLLKLEEMEKEIYKKSHESYKDTKRWMFKK
Does B1 bind?
Result: binds

Reference: publication PMC4812828 (Nature structural & molecular biology, 2016)
